Here are results for 27 variants from the supplement of paper PMC7125110.

B1: glmS ribozyme (parent)
chain: AUAAAAGCGCCAGAACUACAGAAAUGUAGUUGACGAGGAGGAGGUUUAUCGAAUUUUCGGCGGAUGCCUCCAAA

Details in all cases: with glucosamine-6-phosphate
Variants of B1 are the subject of data set [1]. The data set is described as follows: self-cleavage kobs at 40 uM GlcN6P; higher = faster cleavage; RNA array. The procedure, abridged:
(§1)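 Sequenced MiSeq chips were the platform: E. coli RNA polymerase transcribed barcoded ribozyme variants on them in situ, and a hybridised Cy3 probe tracked these at 37 °C. After glucosamine-6-phosphate (40 μM to 10 mM) in HEPES/KCl/Mg(OAc)2 buffer was flowed in, tiles were imaged over ~14 h. Signals normalised to baseline and to non-cleaving reference variants were reduced to per-tile medians and fit to one- or two-exponential decays to obtain kobs. kcat and KM were derived through weighted Michaelis–Menten fits across concentrations.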

In data set [2] the parent is B1. The data set can be described thus: self-cleavage kobs at 160 uM GlcN6P; higher = faster cleavage; RNA array. The procedure, abridged: as §1
In data set [3] the parent is B1. The data set can be described thus: self-cleavage kobs at 640 uM GlcN6P; higher = faster cleavage; RNA array. The procedure, abridged: as §1
Variants of B1 are the subject of data set [4]. The data set can be described thus: self-cleavage kobs at 10000 uM GlcN6P; higher = faster cleavage; RNA array. The procedure, abridged:
as §1

The variants in data set [5] derive from B1. The data set can be described thus: self-cleavage kobs at 2500 uM GlcN6P; higher = faster cleavage; RNA array. The procedure, abridged:
as §1

± gives the standard error. Variants at the floor of the assay were thinned out. Bounds are passed on as bounds.

Take AUAAAAGCGCCAGAACUACAGAAAUGUAGUUAACGAGGAGGAGGUUUAUCAAAUUUUCGGCGGAUGCCUCCAAA: the “self-cleavage kobs at 40 uM GlcN6P” value in data set [1] was < 1e-05 s⁻¹. The “self-cleavage kobs at 160 uM GlcN6P” value in data set [2] was < 1e-05 s⁻¹. Moreover, in data set [3], the “self-cleavage kobs at 640 uM GlcN6P” value is < 1e-05 s⁻¹. Moreover, in data set [4], the “self-cleavage kobs at 10000 uM GlcN6P” value is < 1e-05 s⁻¹.
With AUAAAAGCGCCAGAACUACAGAAAUGUAGUAGACGAGGAGGAGGUUUAUCGAGUUUUCGGAGGAUGCCUCCAAA, the “self-cleavage kobs at 40 uM GlcN6P” value in data set [1] was < 1e-05 s⁻¹. In addition, the “self-cleavage kobs at 2500 uM GlcN6P” value in data set [5] was < 1e-05 s⁻¹. The “self-cleavage kobs at 10000 uM GlcN6P” value in data set [4] is < 1e-05 s⁻¹.
In the case of AUAAAAGCGCGAGAACUACAGAAAUGUAGCGGACGAGGAGGAGGUUUAUCGAAUUUUCGGCGGAUGCCUCCAAA, the “self-cleavage kobs at 40 uM GlcN6P” value in data set [1] was < 1e-05 s⁻¹.
In the case of AUAAAAGCGCCAGAACUACAGAAAUGUAUUUGACGAGGAGGAGGUUUAUCGAAUUUUCGGCUGAUGCCUCCAAA, in data set [1], the “self-cleavage kobs at 40 uM GlcN6P” value was < 1e-05 s⁻¹. In data set [2], the “self-cleavage kobs at 160 uM GlcN6P” value was < 1e-05 s⁻¹. Moreover, the “self-cleavage kobs at 640 uM GlcN6P” value in data set [3] is < 1e-05 s⁻¹. For the same variant, the “self-cleavage kobs at 2500 uM GlcN6P” value in data set [5] is < 1e-05 s⁻¹. Besides, the “self-cleavage kobs at 10000 uM GlcN6P” value in data set [4] is < 1e-05 s⁻¹.
AUAAAGGCGCCAGAACUACAGAAAUGUAGUGGACGAGGAGGCGGUUUGUCGAAUUUUCGGCGGAUGGCUCCAAA: the “self-cleavage kobs at 40 uM GlcN6P” value in data set [1] was < 1e-05 s⁻¹.
As for AUAAAAGCGCCAGAACUACAGAAAUGUAGUUCACGAGGAGGAGGUUUAUCGAAUUUUCGGCGGAUGACUCCAAA, the “self-cleavage kobs at 40 uM GlcN6P” value in data set [1] is < 1e-05 s⁻¹. Also, the “self-cleavage kobs at 10000 uM GlcN6P” value in data set [4] stood at 2.83e-05 ± 9.7e-06 s⁻¹.
On to AUAAAAGCGCCAGAACUACAGAAAUGUAGUUGACGAGGAGGAGGUUUAUCGAUUUUUCGGCGGAUGUCUCCAAA, for which, in data set [1], the “self-cleavage kobs at 40 uM GlcN6P” value came out at 0.000272 ± 2.9e-05 s⁻¹. Also, in data set [2], the “self-cleavage kobs at 160 uM GlcN6P” value worked out at 0.000713 ± 8.9e-05 s⁻¹. Moreover, the “self-cleavage kobs at 640 uM GlcN6P” value in data set [3] was found to be 0.00132 ± 0.00019 s⁻¹. For the same variant, in data set [5], the “self-cleavage kobs at 2500 uM GlcN6P” value was determined as 0.0104 ± 0.0027 s⁻¹. Also, the “self-cleavage kobs at 10000 uM GlcN6P” value in data set [4] turned out to be 0.0214 ± 0.0049 s⁻¹.
In the case of AUAAAAGCGCCAGAAGUACAGAAAUGUAGUUGACGAGGAGGAGUUUUAUCGAAUUUUCGGCGGAAGCCUCCAAA, the “self-cleavage kobs at 40 uM GlcN6P” value in data set [1] was < 1e-05 s⁻¹. For the same variant, the “self-cleavage kobs at 2500 uM GlcN6P” value in data set [5] is < 1e-05 s⁻¹.
For the variant AUAAACGCGCCAGAACUACAGAAAUGUAAUUGACGAGGAAGAGUUUUAUCGAAUUUUCGGCGGAUGCCUCCAAA, in data set [1], the “self-cleavage kobs at 40 uM GlcN6P” value was < 1e-05 s⁻¹. Also, in data set [4], the “self-cleavage kobs at 10000 uM GlcN6P” value is < 1e-05 s⁻¹.
Regarding AUAAAAGCGCCAGAACUACAGAAAUGUAGUUGACGAGGAGGAGGCUUAUCGAAUUUUCGGCGGGUGCCUCCAAA, the “self-cleavage kobs at 40 uM GlcN6P” value in data set [1] is 0.000103 ± 1.8e-05 s⁻¹. Besides, the “self-cleavage kobs at 2500 uM GlcN6P” value in data set [5] was found to be 0.00182 ± 0.00053 s⁻¹. For the same variant, the “self-cleavage kobs at 10000 uM GlcN6P” value in data set [4] was 0.00342 ± 0.00055 s⁻¹.
The like results for AUAAAAGCGCCAGAACUACAGAAAUGUAGUUGAGGAGGAGGAGAUUUAUCGAAUUUUCGCCGGAUGCCUCCAAA were, in that order, < 1e-05 s⁻¹, < 1e-05 s⁻¹ and < 1e-05 s⁻¹.
As to AUAAAAGCGCCAGAACUACAGAAAUGUAGUUGACUAGGAGGAGGUUUAUCGAAUUUUCGGCGGAUGCCUCCAAA, the “self-cleavage kobs at 40 uM GlcN6P” value in data set [1] was < 1e-05 s⁻¹. The “self-cleavage kobs at 160 uM GlcN6P” value in data set [2] is < 1e-05 s⁻¹. For the same variant, in data set [3], the “self-cleavage kobs at 640 uM GlcN6P” value was < 1e-05 s⁻¹. The “self-cleavage kobs at 2500 uM GlcN6P” value in data set [5] was < 1e-05 s⁻¹. In addition, the “self-cleavage kobs at 10000 uM GlcN6P” value in data set [4] was < 1e-05 s⁻¹.
AUAAAAGCGCCAGGACUACAGAAAUGUAAUUGACGAGGAGGAGGUUUAUCGAAUUUUCGGCGGAUGCCUCCAAA: the “self-cleavage kobs at 40 uM GlcN6P” value in data set [1] stood at 0.000403 ± 6.2e-05 s⁻¹. Besides, the “self-cleavage kobs at 640 uM GlcN6P” value in data set [3] was determined as 0.00394 ± 0.00079 s⁻¹. Moreover, the “self-cleavage kobs at 2500 uM GlcN6P” value in data set [5] is 0.00353 ± 0.00081 s⁻¹. Further, in data set [4], the “self-cleavage kobs at 10000 uM GlcN6P” value came out at 0.0317 ± 0.0076 s⁻¹.
In the case of AUAAAAGCGCCAGAACUACAGAAAUGUAGUUGACGAGGAGGAGGUUUAUCGAAUUCUCGGUGGAUGCCUAUAAA, the “self-cleavage kobs at 40 uM GlcN6P” value in data set [1] was < 1e-05 s⁻¹. Also, the “self-cleavage kobs at 2500 uM GlcN6P” value in data set [5] was < 1e-05 s⁻¹.
Turning to AUAAACGCGCCAUAACUACAGAAAUGUAGUUGAGGAGGAGGAGGUUUAUCGAAUUUUCGCCGGAUGCCUCCAAA, the “self-cleavage kobs at 40 uM GlcN6P” value in data set [1] was < 1e-05 s⁻¹.
On to AUAAAAUCGCCAGAACUACAGAAAUGUAGUUCACGAGGAGGAGGUUUAUCGAAUUUUCGGCGGAUGCCUCCAAA, for which, in data set [1], the “self-cleavage kobs at 40 uM GlcN6P” value is < 1e-05 s⁻¹. Moreover, in data set [3], the “self-cleavage kobs at 640 uM GlcN6P” value was < 1e-05 s⁻¹. In addition, the “self-cleavage kobs at 2500 uM GlcN6P” value in data set [5] is < 1e-05 s⁻¹. Moreover, in data set [4], the “self-cleavage kobs at 10000 uM GlcN6P” value is < 1e-05 s⁻¹.
As for AUAAAAGCGCCAGAACUACAGAAAUGUAGUUGACGUGGAGGAGGUUUUUCUAAUUUUCGGCGGAGGCCUCCAAA, in data set [1], the “self-cleavage kobs at 40 uM GlcN6P” value was < 1e-05 s⁻¹.
Take AUAAAAGCGCCAGGACUACAGAAAUGUAGUUGACGAGGAGGAGGUUUAUUGAAUUUUCGGCGGAUUCAUCCAAA: the “self-cleavage kobs at 40 uM GlcN6P” value in data set [1] came out at 5.56e-05 ± 2.7e-05 s⁻¹. Also, the “self-cleavage kobs at 10000 uM GlcN6P” value in data set [4] came out at 4.35e-05 ± 1.8e-05 s⁻¹.
For AUAAAAGCGCCAGAACUACAGAAAUGUAGUGGACGAGGAGGAGGUUUAUGGAAUUUUCGGCGGAUGCCUUCAAA, in that order: 5.37e-05 ± 2.4e-05 s⁻¹ and 4.81e-05 ± 1.5e-05 s⁻¹.
For AUAAAAGCGCCAGAACUACAGAAAUGUAGUUGACUAGGAGUAGGCUUAUCGAAUUUUCGGCGGAUGCCUCCAAA, in that order: < 1e-05 s⁻¹ and < 1e-05 s⁻¹.
Turning to AUAAAGGCGCCAGAUCUACAGAAAUGUAGUUGAAGAGGAGGAGGUUUAUCGAAUUUUCGGCGGAUGCCUCCAAA, the “self-cleavage kobs at 40 uM GlcN6P” value in data set [1] was < 1e-05 s⁻¹. Besides, the “self-cleavage kobs at 160 uM GlcN6P” value in data set [2] was < 1e-05 s⁻¹. Also, in data set [3], the “self-cleavage kobs at 640 uM GlcN6P” value is < 1e-05 s⁻¹. The “self-cleavage kobs at 2500 uM GlcN6P” value in data set [5] is < 1e-05 s⁻¹. Besides, the “self-cleavage kobs at 10000 uM GlcN6P” value in data set [4] is < 1e-05 s⁻¹.
In the case of AUAAAAGCGCCAGAACUACAGAAAUGUAGUGGACGAGGAGGAGGCUUAGCGAAUUUUCGGCGGAUGCCUCCAAA, in data set [1], the “self-cleavage kobs at 40 uM GlcN6P” value is < 1e-05 s⁻¹. The “self-cleavage kobs at 640 uM GlcN6P” value in data set [3] was < 1e-05 s⁻¹. In data set [4], the “self-cleavage kobs at 10000 uM GlcN6P” value is < 1e-05 s⁻¹.
For the variant AUAAAAGCGCCAGAACUACAGAAAUGUAGUUGACGAGGCGGAGCUUUAUCGAAUUUUCGGCGGACGCCUCCAAA, the “self-cleavage kobs at 40 uM GlcN6P” value in data set [1] was < 1e-05 s⁻¹.
For the variant AUAAAAGCGCCAGAACUACAGAAAUGUAGUUGACGAGGAGGAGGUUUAUCGAACUUUCGGCGUCUGCCUCCAAA, the “self-cleavage kobs at 40 uM GlcN6P” value in data set [1] is < 1e-05 s⁻¹. The “self-cleavage kobs at 10000 uM GlcN6P” value in data set [4] is < 1e-05 s⁻¹.
As for AUAAAAGUGCCAGAACUACAGAAAUGUAGUUGACGAGGACGAGGUUUAUCGAAUUUUCGGCGGAUGCCUCCAAA, the “self-cleavage kobs at 40 uM GlcN6P” value in data set [1] was < 1e-05 s⁻¹. The “self-cleavage kobs at 640 uM GlcN6P” value in data set [3] is < 1e-05 s⁻¹. Further, the “self-cleavage kobs at 10000 uM GlcN6P” value in data set [4] was < 1e-05 s⁻¹.
For AUAAAAGCGCCAGAACUACAGAAAUGUAGUUGGCGAGGAGGAGGUUUAUCGAAUUUUCGGCAGAUGCCUCCAAA, in data set [1], the “self-cleavage kobs at 40 uM GlcN6P” value was < 1e-05 s⁻¹. Besides, the “self-cleavage kobs at 10000 uM GlcN6P” value in data set [4] is < 1e-05 s⁻¹.
As for AUAAAAGCGCCAGAACUACAGAAAUGUAGUUGACGAGGAGGAGGUUUAUCCAAUUUUCGGCGGAUGCCUCCAAA, the “self-cleavage kobs at 40 uM GlcN6P” value in data set [1] is < 1e-05 s⁻¹. For the same variant, the “self-cleavage kobs at 160 uM GlcN6P” value in data set [2] was < 1e-05 s⁻¹. For the same variant, in data set [3], the “self-cleavage kobs at 640 uM GlcN6P” value was < 1e-05 s⁻¹. For the same variant, the “self-cleavage kobs at 2500 uM GlcN6P” value in data set [5] was < 1e-05 s⁻¹. The “self-cleavage kobs at 10000 uM GlcN6P” value in data set [4] is < 1e-05 s⁻¹.
